Data: patent US20260001928A1 (CORTERIA PHARMACEUTICALS, priority 2022, published 2026)
*1 amine or outer side, *2 acyl side, *3 side chain or, on linkers, in order; H or OH if unused. Side-chain parts run from the residue outwards. [ ]: non-standard residue; d: D form. The star is where a group is joined. C18 diacid = O=C(O)CCCCCCCCCCCCCCCCC(=O)*; C16 diacid = O=C(O)CCCCCCCCCCCCCCC(=O)*; γGlu = O=C(O)[C@H](CCC(=O)[*:2])N[*:1]; Pentanoyl = CCCCC(=O)*; AEEA = NCCOCCOCC(=O)O; Aib = CC(C)(N)C(=O)O; Propionyl = CCC(=O)*; Butyryl = CCCC(=O)*

T1: CRF1R receptor (UniProt P34998 24-415, limits assumed)
T1 sequence (looked up): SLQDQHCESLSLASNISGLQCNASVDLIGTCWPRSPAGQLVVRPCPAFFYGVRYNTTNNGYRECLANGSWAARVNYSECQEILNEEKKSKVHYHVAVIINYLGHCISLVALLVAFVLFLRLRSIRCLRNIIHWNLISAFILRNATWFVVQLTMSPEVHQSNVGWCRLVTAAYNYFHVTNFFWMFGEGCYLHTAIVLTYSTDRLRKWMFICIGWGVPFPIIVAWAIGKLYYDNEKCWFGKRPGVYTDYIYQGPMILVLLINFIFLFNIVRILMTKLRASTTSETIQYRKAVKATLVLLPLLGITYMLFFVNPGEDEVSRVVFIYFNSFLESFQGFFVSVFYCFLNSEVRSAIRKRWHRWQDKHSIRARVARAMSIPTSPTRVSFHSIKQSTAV


How the values were obtained:
CRF1R receptor = molecular target: T1, CRF1R receptor; assay: cell-based or functional assay
[1] = molecular target: human corticotropin-releasing factor 2a (CRF2a receptor) (human), Q13324; assay: cell-based or functional assay
Chain of human corticotropin-releasing factor 2a (CRF2a receptor) (human), Q13324 (Q13324 20-411): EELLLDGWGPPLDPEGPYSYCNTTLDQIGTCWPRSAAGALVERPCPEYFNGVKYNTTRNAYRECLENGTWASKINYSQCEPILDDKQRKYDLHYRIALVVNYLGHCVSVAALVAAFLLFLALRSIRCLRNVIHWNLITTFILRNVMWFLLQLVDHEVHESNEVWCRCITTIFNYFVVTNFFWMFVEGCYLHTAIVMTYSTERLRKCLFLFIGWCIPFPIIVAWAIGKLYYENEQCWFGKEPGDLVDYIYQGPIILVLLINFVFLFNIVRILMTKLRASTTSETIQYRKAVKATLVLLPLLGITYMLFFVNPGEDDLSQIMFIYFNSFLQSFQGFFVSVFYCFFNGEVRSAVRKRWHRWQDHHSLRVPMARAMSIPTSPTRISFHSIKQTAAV

| Binder | Emax (% I) (CRF1R receptor) [%] | EC50 [nM] (cAMP) [1] |
| --- | --- | --- |
| Propionyl-VLSLD[dV]PIKLK([γGlu-C16 diacid])KILLEQEKQKKQREQAETNKQILAQV-NH2 (SMILES CCC(=O)N[C@H](C(=O)N[C@@H](CC(C)C)C(=O)N[C@@H](CO)C(=O)N[C@@H](CC(C)C)C(=O)N[C@@H](CC(=O)O)C(=O)N[C@@H](C(=O)N1CCC[C@H]1C(=O)N[C@H](C(=O)N[C@@H](CCCCN)C(=O)N[C@@H](CC(C)C)C(=O)N[C@@H](CCCCNC(=O)CC[C@H](NC(=O)CCCCCCCCCCCCCCC(=O)O)C(=O)O)C(=O)N[C@@H](CCCCN)C(=O)N[C@H](C(=O)N[C@@H](CC(C)C)C(=O)N[C@@H](CC(C)C)C(=O)N[C@@H](CCC(=O)O)C(=O)N[C@@H](CCC(N)=O)C(=O)N[C@@H](CCC(=O)O)C(=O)N[C@@H](CCCCN)C(=O)N[C@@H](CCC(N)=O)C(=O)N[C@@H](CCCCN)C(=O)N[C@@H](CCCCN)C(=O)N[C@@H](CCC(N)=O)C(=O)N[C@@H](CCCNC(=N)N)C(=O)N[C@@H](CCC(=O)O)C(=O)N[C@@H](CCC(N)=O)C(=O)N[C@@H](C)C(=O)N[C@@H](CCC(=O)O)C(=O)N[C@H](C(=O)N[C@@H](CC(N)=O)C(=O)N[C@@H](CCCCN)C(=O)N[C@@H](CCC(N)=O)C(=O)N[C@H](C(=O)N[C@@H](CC(C)C)C(=O)N[C@@H](C)C(=O)N[C@@H](CCC(N)=O)C(=O)N[C@H](C(N)=O)C(C)C)[C@@H](C)CC)[C@@H](C)O)[C@@H](C)CC)[C@@H](C)CC)C(C)C)C(C)C) [SEQ ID NO 35] | 13 | 0.23 |
| Butyryl-VLSLD[dV]PIKLK([γGlu-C16 diacid])KILLEQEKQKKQREQAETNKQILAQV-NH2 (SMILES CCCC(=O)N[C@H](C(=O)N[C@@H](CC(C)C)C(=O)N[C@@H](CO)C(=O)N[C@@H](CC(C)C)C(=O)N[C@@H](CC(=O)O)C(=O)N[C@@H](C(=O)N1CCC[C@H]1C(=O)N[C@H](C(=O)N[C@@H](CCCCN)C(=O)N[C@@H](CC(C)C)C(=O)N[C@@H](CCCCNC(=O)CC[C@H](NC(=O)CCCCCCCCCCCCCCC(=O)O)C(=O)O)C(=O)N[C@@H](CCCCN)C(=O)N[C@H](C(=O)N[C@@H](CC(C)C)C(=O)N[C@@H](CC(C)C)C(=O)N[C@@H](CCC(=O)O)C(=O)N[C@@H](CCC(N)=O)C(=O)N[C@@H](CCC(=O)O)C(=O)N[C@@H](CCCCN)C(=O)N[C@@H](CCC(N)=O)C(=O)N[C@@H](CCCCN)C(=O)N[C@@H](CCCCN)C(=O)N[C@@H](CCC(N)=O)C(=O)N[C@@H](CCCNC(=N)N)C(=O)N[C@@H](CCC(=O)O)C(=O)N[C@@H](CCC(N)=O)C(=O)N[C@@H](C)C(=O)N[C@@H](CCC(=O)O)C(=O)N[C@H](C(=O)N[C@@H](CC(N)=O)C(=O)N[C@@H](CCCCN)C(=O)N[C@@H](CCC(N)=O)C(=O)N[C@H](C(=O)N[C@@H](CC(C)C)C(=O)N[C@@H](C)C(=O)N[C@@H](CCC(N)=O)C(=O)N[C@H](C(N)=O)C(C)C)[C@@H](C)CC)[C@@H](C)O)[C@@H](C)CC)[C@@H](C)CC)C(C)C)C(C)C) [SEQ ID NO 36] | 22 | 0.14 |
| Pentanoyl-VLSLD[dV]PIKLK([γGlu-C16 diacid])Q[Aib]LLKQERQKKQREQAEKNVQILEQV-NH2 (SMILES CCCCC(=O)N[C@H](C(=O)N[C@@H](CC(C)C)C(=O)N[C@@H](CO)C(=O)N[C@@H](CC(C)C)C(=O)N[C@@H](CC(=O)O)C(=O)N[C@@H](C(=O)N1CCC[C@H]1C(=O)N[C@H](C(=O)N[C@@H](CCCCN)C(=O)N[C@@H](CC(C)C)C(=O)N[C@@H](CCCCNC(=O)CC[C@H](NC(=O)CCCCCCCCCCCCCCC(=O)O)C(=O)O)C(=O)N[C@@H](CCC(N)=O)C(=O)NC(C)(C)C(=O)N[C@@H](CC(C)C)C(=O)N[C@@H](CC(C)C)C(=O)N[C@@H](CCCCN)C(=O)N[C@@H](CCC(N)=O)C(=O)N[C@@H](CCC(=O)O)C(=O)N[C@@H](CCCNC(=N)N)C(=O)N[C@@H](CCC(N)=O)C(=O)N[C@@H](CCCCN)C(=O)N[C@@H](CCCCN)C(=O)N[C@@H](CCC(N)=O)C(=O)N[C@@H](CCCNC(=N)N)C(=O)N[C@@H](CCC(=O)O)C(=O)N[C@@H](CCC(N)=O)C(=O)N[C@@H](C)C(=O)N[C@@H](CCC(=O)O)C(=O)N[C@@H](CCCCN)C(=O)N[C@@H](CC(N)=O)C(=O)N[C@H](C(=O)N[C@@H](CCC(N)=O)C(=O)N[C@H](C(=O)N[C@@H](CC(C)C)C(=O)N[C@@H](CCC(=O)O)C(=O)N[C@@H](CCC(N)=O)C(=O)N[C@H](C(N)=O)C(C)C)[C@@H](C)CC)C(C)C)[C@@H](C)CC)C(C)C)C(C)C) [SEQ ID NO 22] | 3 | 4.44 |
| Ac-IVLSLD[dV]PIKLK([γGlu-C16 diacid])Q[Aib]LLKQERQKKQREQAEKNVQILEQV-NH2 (SMILES CC[C@H](C)[C@H](NC(C)=O)C(=O)N[C@H](C(=O)N[C@@H](CC(C)C)C(=O)N[C@@H](CO)C(=O)N[C@@H](CC(C)C)C(=O)N[C@@H](CC(=O)O)C(=O)N[C@@H](C(=O)N1CCC[C@H]1C(=O)N[C@H](C(=O)N[C@@H](CCCCN)C(=O)N[C@@H](CC(C)C)C(=O)N[C@@H](CCCCNC(=O)CC[C@H](NC(=O)CCCCCCCCCCCCCCC(=O)O)C(=O)O)C(=O)N[C@@H](CCC(N)=O)C(=O)NC(C)(C)C(=O)N[C@@H](CC(C)C)C(=O)N[C@@H](CC(C)C)C(=O)N[C@@H](CCCCN)C(=O)N[C@@H](CCC(N)=O)C(=O)N[C@@H](CCC(=O)O)C(=O)N[C@@H](CCCNC(=N)N)C(=O)N[C@@H](CCC(N)=O)C(=O)N[C@@H](CCCCN)C(=O)N[C@@H](CCCCN)C(=O)N[C@@H](CCC(N)=O)C(=O)N[C@@H](CCCNC(=N)N)C(=O)N[C@@H](CCC(=O)O)C(=O)N[C@@H](CCC(N)=O)C(=O)N[C@@H](C)C(=O)N[C@@H](CCC(=O)O)C(=O)N[C@@H](CCCCN)C(=O)N[C@@H](CC(N)=O)C(=O)N[C@H](C(=O)N[C@@H](CCC(N)=O)C(=O)N[C@H](C(=O)N[C@@H](CC(C)C)C(=O)N[C@@H](CCC(=O)O)C(=O)N[C@@H](CCC(N)=O)C(=O)N[C@H](C(N)=O)C(C)C)[C@@H](C)CC)C(C)C)[C@@H](C)CC)C(C)C)C(C)C) [SEQ ID NO 18] | 10 | 3.55 |

More lines, now with the values ahead:

| Emax (% I) (CRF1R receptor) [%] | EC50 [nM] (cAMP) [1] | Binder |
| --- | --- | --- |
| 6 | 0.8 | Pentanoyl-VLSLD[dV]PIKLK([γGlu-C16 diacid])KILLEQEKQKKQREQAETNVQILAQV-NH2 (SMILES CCCCC(=O)N[C@H](C(=O)N[C@@H](CC(C)C)C(=O)N[C@@H](CO)C(=O)N[C@@H](CC(C)C)C(=O)N[C@@H](CC(=O)O)C(=O)N[C@@H](C(=O)N1CCC[C@H]1C(=O)N[C@H](C(=O)N[C@@H](CCCCN)C(=O)N[C@@H](CC(C)C)C(=O)N[C@@H](CCCCNC(=O)CC[C@H](NC(=O)CCCCCCCCCCCCCCC(=O)O)C(=O)O)C(=O)N[C@@H](CCCCN)C(=O)N[C@H](C(=O)N[C@@H](CC(C)C)C(=O)N[C@@H](CC(C)C)C(=O)N[C@@H](CCC(=O)O)C(=O)N[C@@H](CCC(N)=O)C(=O)N[C@@H](CCC(=O)O)C(=O)N[C@@H](CCCCN)C(=O)N[C@@H](CCC(N)=O)C(=O)N[C@@H](CCCCN)C(=O)N[C@@H](CCCCN)C(=O)N[C@@H](CCC(N)=O)C(=O)N[C@@H](CCCNC(=N)N)C(=O)N[C@@H](CCC(=O)O)C(=O)N[C@@H](CCC(N)=O)C(=O)N[C@@H](C)C(=O)N[C@@H](CCC(=O)O)C(=O)N[C@H](C(=O)N[C@@H](CC(N)=O)C(=O)N[C@H](C(=O)N[C@@H](CCC(N)=O)C(=O)N[C@H](C(=O)N[C@@H](CC(C)C)C(=O)N[C@@H](C)C(=O)N[C@@H](CCC(N)=O)C(=O)N[C@H](C(N)=O)C(C)C)[C@@H](C)CC)C(C)C)[C@@H](C)O)[C@@H](C)CC)[C@@H](C)CC)C(C)C)C(C)C) [SEQ ID NO 81] |
| 6 | 5.76 | Pentanoyl-VLSLD[dV]PIKLK([AEEA-AEEA-γGlu-C18 diacid])KILLEQEKQKKQREQAETNVQILAQV-NH2 (SMILES CCCCC(=O)N[C@H](C(=O)N[C@@H](CC(C)C)C(=O)N[C@@H](CO)C(=O)N[C@@H](CC(C)C)C(=O)N[C@@H](CC(=O)O)C(=O)N[C@@H](C(=O)N1CCC[C@H]1C(=O)N[C@H](C(=O)N[C@@H](CCCCN)C(=O)N[C@@H](CC(C)C)C(=O)N[C@@H](CCCCNC(=O)COCCOCCNC(=O)COCCOCCNC(=O)CC[C@H](NC(=O)CCCCCCCCCCCCCCCCC(=O)O)C(=O)O)C(=O)N[C@@H](CCCCN)C(=O)N[C@H](C(=O)N[C@@H](CC(C)C)C(=O)N[C@@H](CC(C)C)C(=O)N[C@@H](CCC(=O)O)C(=O)N[C@@H](CCC(N)=O)C(=O)N[C@@H](CCC(=O)O)C(=O)N[C@@H](CCCCN)C(=O)N[C@@H](CCC(N)=O)C(=O)N[C@@H](CCCCN)C(=O)N[C@@H](CCCCN)C(=O)N[C@@H](CCC(N)=O)C(=O)N[C@@H](CCCNC(=N)N)C(=O)N[C@@H](CCC(=O)O)C(=O)N[C@@H](CCC(N)=O)C(=O)N[C@@H](C)C(=O)N[C@@H](CCC(=O)O)C(=O)N[C@H](C(=O)N[C@@H](CC(N)=O)C(=O)N[C@H](C(=O)N[C@@H](CCC(N)=O)C(=O)N[C@H](C(=O)N[C@@H](CC(C)C)C(=O)N[C@@H](C)C(=O)N[C@@H](CCC(N)=O)C(=O)N[C@H](C(N)=O)C(C)C)[C@@H](C)CC)C(C)C)[C@@H](C)O)[C@@H](C)CC)[C@@H](C)CC)C(C)C)C(C)C) [SEQ ID NO 121] |
